From PMC5445526 come the findings set out here.

In data set [1] the target is BXA-(GB1)2. Put plainly: MALDI-TOF mass spectrometry.
For data set [2], the target named is BXA-(GB1)2. Put plainly: SEC + other: SDS-PAGE with gel densitometry.
Data set [3] has as its target BXA-(GB1)2. Put plainly: SDS-PAGE with gel densitometry.
Data set [4] can be described thus: SEC.
The target in data set [5] is BXA-(GB1)2. Put plainly: SEC.
The target in data set [6] is (GB1)2-AXB. As to the kind of experiment: MALDI-TOF mass spectrometry.
In data set [7] the target is (GB1)2-AXB. Put plainly: SEC + other: SDS-PAGE with gel densitometry.
Data set [8] has as its target (GB1)2-AXB. Put plainly: SDS-PAGE with gel densitometry.
Data set [9] deals with (GB1)2-AXB. Put plainly: SEC.
Data set [10] concerns the target AXB-(GB1)2. Put plainly: MALDI-TOF mass spectrometry.
Data set [11] addresses AXB-(GB1)2. As to the kind of experiment: SEC + other: SDS-PAGE with gel densitometry.
Data set [12] concerns the target AXB-(GB1)2. Put plainly: SDS-PAGE with gel densitometry.
Data set [13] has as its target AXB-(GB1)2. Put plainly: SEC. (In general: In gel filtration, larger molecules generally elute earlier.)
The target of data set [14] is (GB1)2-BXA. Put plainly: MALDI-TOF mass spectrometry.
Data set [15] deals with (GB1)2-BXA. Put plainly: SEC + other: SDS-PAGE with gel densitometry.
Data set [16] deals with (GB1)2-BXA. As to the kind of experiment: SDS-PAGE with gel densitometry.
In data set [17] the target is (GB1)2-BXA. Put plainly: SEC.

Consider BXA-(GB1)2, for which the stoichiometry N in [1] and in data set [5] was 2 in each case. The overall catenation efficiency (%) in data set [2] came to 83%. In data set [3], this substance had a dimer content by SDS-PAGE densitometry (%) of 86%. Moreover, the dimer content by SEC (%) in data set [4] came out at 97%.
For the substance (GB1)2-AXB, the stoichiometry N in [6] and in data set [9] was 2 in each case. Further, the overall catenation efficiency (%) in data set [7] came out at 73%. In data set [8], this substance gave a dimer content by SDS-PAGE densitometry (%) of 93%. This substance came in with a dimer content by SEC (%) in data set [4] of 78%.
Regarding AXB-(GB1)2, the stoichiometry N in [10] and in data set [13] was 2 each time. For the same substance, the overall catenation efficiency (%) in data set [11] was 66%. For the same substance, in [12], the dimer content by SDS-PAGE densitometry (%) is 80%. The substance further registered a dimer content by SEC (%) in data set [4] of 82%.
Consider (GB1)2-BXA, for which the stoichiometry N in data set [14] and in data set [17] was 2 in each case. Besides, the overall catenation efficiency (%) in [15] is 76%. Besides, in data set [16], the dimer content by SDS-PAGE densitometry (%) was 83%. The substance further had a dimer content by SEC (%) in data set [4] of 92%.
